In US20260209750, “SYSTEM AND METHOD FOR […] RNA APTAMER” (CRISmers Biotechnologies (Shenzhen) Co., Ltd., published 2026):

B1: #2-1-18 full (ssRNA)
RNA: ACUUGGCCACGUCGACUGAAAUCCUCUUCCUGCAGGGCCAAGUG
B2: #2-1-18-2'-F-O (ssRNA)
RNA: B1 RNA
modifications: 2'-F on pyrimidines, 2'-OMe on purines
B3: #5-2-15 full (ssRNA)
RNA: ACUUGGCCAAUUACCGUAGUUUUUGUAGUCUGCAGGGCCAAGUG
B4: #5-2-15-2'-F-O (ssRNA)
RNA: B3 RNA
modifications: 2'-F on pyrimidines, 2'-OMe on purines

Key:
NSP7-8 complex = NSP7-8 complex (SARS-CoV-2, UniProt P0DTD1;P0DTD1 P0DTD1:3860-3942,P0DTD1:3943-4140); experiment: ELONA; conditions: label: biotin
[1] = biological target: PD-1 extracellular domain, recombinant (UniProt Q15116 Q15116:25-170); experiment: ELONA
Sequence of PD-1 extracellular domain, recombinant (Q15116 25-170, one chain of several): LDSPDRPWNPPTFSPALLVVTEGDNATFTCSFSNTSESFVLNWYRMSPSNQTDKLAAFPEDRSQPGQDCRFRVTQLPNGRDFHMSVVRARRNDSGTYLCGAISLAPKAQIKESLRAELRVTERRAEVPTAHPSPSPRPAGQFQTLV

[2] = biological target: T1, SARS-CoV-2 spike RBD (wild type), recombinant (SARS-CoV-2, UniProt P0DTC2 P0DTC2:319-541); experiment: EMSA
[3] = biological target: T1, SARS-CoV-2 spike RBD (wild type), …; experiment: ELONA

Row | Binder | binding result (NSP7-8 complex) | binding result [1] | binding result [2] | Kd [3] [µM]
1 | B1 | no binding | no binding | – | –
2 | B2 | – | – | binds | –
3 | B3 | no binding | no binding | – | 0.0226
4 | B4 | – | – | binds | –
